Data as given in PMC5261807 (2017).
Non-standard residues stand in square brackets, D forms with d. No end group written: not given here. Arg(Me2a) = CN(C)C(=N)NCCC[C@H](N)C(=O)O; Lys(Me3) = C[N+](C)(C)CCCC[C@H](N)C(=O)O; Arg(Me2s) = CN=C(NC)NCCC[C@H](N)C(=O)O; pT = C[C@@H](OP(=O)(O)O)[C@H](N)C(=O)O; Lys(Me2) = CN(C)CCCC[C@H](N)C(=O)O; Me2s = symmetric dimethyl (on Arg); pS = N[C@@H](COP(=O)(O)O)C(=O)O; Lys(Me) = CNCCCC[C@H](N)C(=O)O; Me3 = trimethyl (on Lys)

T1: Bdf1 bromodomain 2 (GST-tagged, WT) (Saccharomyces cerevisiae (strain ATCC …, UniProt P35817))
T1 chain: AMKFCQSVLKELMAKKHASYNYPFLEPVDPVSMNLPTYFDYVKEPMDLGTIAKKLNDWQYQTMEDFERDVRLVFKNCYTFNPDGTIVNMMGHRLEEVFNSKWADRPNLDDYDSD

T2: Bdf1 bromodomain 1 (GST-tagged, WT) (Saccharomyces cerevisiae (strain ATCC …, UniProt P35817))
T2 chain: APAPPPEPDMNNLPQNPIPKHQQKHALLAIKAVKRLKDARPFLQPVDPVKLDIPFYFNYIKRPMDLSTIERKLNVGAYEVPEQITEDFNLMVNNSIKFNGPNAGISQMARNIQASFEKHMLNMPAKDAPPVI

B1: H2a 1-19 (peptide)
chain: SGRGKQGGKARAKAKSRSS
modifications: histone peptides carry modifications given inline in the sequence and in columns 4-7 (Kac, Kme1/2/3, Rme2a/s, Cit, pS/pT); N-terminus free or acetylated
B2: c-myc tag (peptide)
chain: EQKLISEEDLA
modifications: histone peptides carry modifications given inline in the sequence and in columns 4-7 (Kac, Kme1/2/3, Rme2a/s, Cit, pS/pT); N-terminus free or acetylated

Target: T1, Bdf1 bromodomain 2 (GST-tagged, WT)
Assay: histone peptide array probed with recombinant GST-bromodomain, signal normalised to myc peptide control

Binder	binding score
A[Arg(Me2s)]T[Lys(Me2)]QTAR[Lys(Me3)]STGGKAPRKQ	0
ARTKQTARKSTGGKAPRKQ (A R T K Q T A R Kme2 pS T G G K A P R K Q)	0
RRKKKRRKKKRKRKKRK (R Rme2s K Kme1 Kac R Rme2a Kme2 K Kme3 R Kme1 Rme2s K Kac R K) [background 02]	0.006
SGRGKGGKGLGKGGAKRHR (pS G R G K G G K G L G K G G A K R H R)	0.00305
PDPAK(Ac)SAPAPKKG[pS]K(Ac)KAVT	0.168
ARTKQTARKSTGGKAPRKQ (A R T Kme2 Q T A Rme2s Kac S T G G K A P R K Q)	0.0564
ARTKQTA[Arg(Me2s)][Lys(Me)][pS]TGGKAPRKQ	0
ARTKQTARKSTGGKAPRKQ (A R T Kme1 Q T A Rme2a Kac S T G G K A P R K Q)	0.00915
PDPAK(Ac)SAPAPKKG[pS]KKAVT	0
A[Arg(Me2a)]T[Lys(Me2)]QTARK(Ac)STGGKAPRKQ	0.00108
SGRGKGGKGLGKGGAKRHR (S G R G K G G Kac G L G Kac G G A K R H R)	0.258
A[Arg(Me2a)]T[Lys(Me3)]QTA[Arg(Me2s)][Lys(Me)]STGGKAPRKQ	0
SGRGKGGKGLGKGGAKRHR (S G Rme2s G K G G Kac G L G K G G A K R H R)	0.0294
ARTKQTARKSTGGKAPRKQ (A R T K Q T A Rme2s Kme3 pS T G G K A P R K Q)	0.00148
SGRGKGGKGLGKGGAKRHR (S G R G K G G Kac G L G K G G A Kac R H R)	0.161
ARTKQTARKSTGGKAPRKQ (A Rme2a T Kme1 Q T A Rme2a Kac S T G G K A P R K Q)	0.00325
ARTKQTA[Arg(Me2s)][Lys(Me2)][pS]TGGKAPRKQ	0.00541
PRKQLATKAA[Arg(Me2s)][Lys(Me2)]SAPATGG	0
B1	0.0141
ARTKQTA[Arg(Me2s)]K(Me)S[pT]GGKAPRKQ	0.00836
AR[pT]K(Ac)QTARKSTGGKAPRKQ	0.0271
ARTKQTARKSTGGKAPRKQ (A R T Kac Q T A Rme2s Kme2 S T G G K A P R K Q)	0.0133
ARTKQTARKSTGGKAPRKQ (A Rme2a T Kme2 Q T A R Kme2 S T G G K A P R K Q)	0
RKSAPATGGVKKPHRYRPG (R K S A P A T G G V Kme1 K P H R Y R P G) [H3 26-45]	0.00364
ARTKQTA[Arg(Me2a)][Lys(Me)]S[pT]GGKAPRKQ	0
ARTKQTARKSTGGKAPRKQ (A Rme2s T Kme2 Q T A Rme2a Kme1 S T G G K A P R K Q)	0

Binder	binding score
ARTKQTA[Arg(Me2a)]K(Ac)[pS][pT]GGKAPRKQ	0
ARTKQTARKSTGGKAPRKQ (A Rme2s T Kme1 Q T A Rme2s Kme3 S T G G K A P R K Q)	0
ARTKQTARKSTGGKAPRKQ (A R T K Q T A R Kme3 S pT G G K A P R K Q)	0
PRKQLATKAARK[pS]APATGG	0
A[Arg(Me2s)]T[Lys(Me2)]QTA[Arg(Me2s)][Lys(Me3)]STGGKAPRKQ	0
ARTKQTARKSTGGKAPRKQ (A R T Kac Q T A Rme2a Kac S T G G K A P R K Q)	0.0821
A[Arg(Me2a)]TK(Ac)QTA[Arg(Me2s)][Lys(Me3)]STGGKAPRKQ	0.00758
PDPAK(Ac)SAPAPKK(Ac)GSKKAVT	0.0186
ARTKQTARKSTGGKAPRKQ (A Rme2s T Kac Q T A Rme2s Kac S T G G K A P R K Q)	0.131
ARTKQTARKSTGGKAPRKQ (A Rme2a T Kac Q T A Rme2s Kac S T G G K A P R K Q)	0.0869
SGRGKGGKGLGKGGAKRHR (pS G Rme2s G Kac G G Kac G L G K G G A K R H R)	0.299
A[Arg(Me2s)]TK(Ac)QTARKSTGGKAPRKQ	0.00482
ARTKQTARKSTGGKAPRKQ (A Rme2a T Kme3 Q T A Rme2s Kme3 S T G G K A P R K Q)	0
B2	1
SGRGKQGGK(Ac)ARAKAKSRSS	0.00797
SGRGKQGGK(Ac)ARAK(Ac)AKSRSS	0.117
A[Arg(Me2s)]TK(Me)QTARKSTGGKAPRKQ	0
A[Arg(Me2a)]T[Lys(Me3)]QTAR[Lys(Me2)]STGGKAPRKQ	0.00443
A[Arg(Me2s)]TK(Ac)QTA[Arg(Me2a)][Lys(Me)]STGGKAPRKQ	0.00384
SGRGKGGKGLGKGGAKRHR (pS G R G Kac G G K G L G K G G A K R H R)	0.069
[pS]GRGK(Ac)QGGKARAK(Ac)AKSRSS	0.231
ARTKQTARKSTGGKAPRKQ (A R T K Q T A R Kme1 pS T G G K A P R K Q)	0
SGRGKGGKGLGKGGAKRHR (S G Rme2a G Kac G G Kac G L G Kac G G A K R H R)	0.386
ARTKQTARKSTGGK(Ac)APRKQ	0.0733
ARTK(Me3)QTAR(Me2s)K(Ac)STGGKAPRKQ	0.0363

Target: T2, Bdf1 bromodomain 1 (GST-tagged, WT)
Assay: as above

Binder	binding score
A[Arg(Me2s)]T[Lys(Me2)]QTAR[Lys(Me3)]STGGKAPRKQ	0
ARTKQTARKSTGGKAPRKQ (A R T K Q T A R Kme2 pS T G G K A P R K Q)	0.00108
RRKKKRRKKKRKRKKRK (R Rme2s K Kme1 Kac R Rme2a Kme2 K Kme3 R Kme1 Rme2s K Kac R K) [background 02]	0.00538
SGRGKGGKGLGKGGAKRHR (pS G R G K G G K G L G K G G A K R H R)	0
PDPAK(Ac)SAPAPKKG[pS]K(Ac)KAVT	0
ARTKQTARKSTGGKAPRKQ (A R T Kme2 Q T A Rme2s Kac S T G G K A P R K Q)	0.0301
ARTKQTA[Arg(Me2s)][Lys(Me)][pS]TGGKAPRKQ	0.00394
ARTKQTARKSTGGKAPRKQ (A R T Kme1 Q T A Rme2a Kac S T G G K A P R K Q)	0.0217
PDPAK(Ac)SAPAPKKG[pS]KKAVT	0.00412
A[Arg(Me2a)]T[Lys(Me2)]QTARK(Ac)STGGKAPRKQ	0
SGRGKGGKGLGKGGAKRHR (S G R G K G G Kac G L G Kac G G A K R H R)	0.18
A[Arg(Me2a)]T[Lys(Me3)]QTA[Arg(Me2s)][Lys(Me)]STGGKAPRKQ	0
SGRGKGGKGLGKGGAKRHR (S G Rme2s G K G G Kac G L G K G G A K R H R)	0
ARTKQTARKSTGGKAPRKQ (A R T K Q T A Rme2s Kme3 pS T G G K A P R K Q)	0.00305
SGRGKGGKGLGKGGAKRHR (S G R G K G G Kac G L G K G G A Kac R H R)	0.0534
ARTKQTARKSTGGKAPRKQ (A Rme2a T Kme1 Q T A Rme2a Kac S T G G K A P R K Q)	0.0124
ARTKQTA[Arg(Me2s)][Lys(Me2)][pS]TGGKAPRKQ	0.000179
PRKQLATKAA[Arg(Me2s)][Lys(Me2)]SAPATGG	0
B1	0
ARTKQTA[Arg(Me2s)]K(Me)S[pT]GGKAPRKQ	0
AR[pT]K(Ac)QTARKSTGGKAPRKQ	0.0321
ARTKQTARKSTGGKAPRKQ (A R T Kac Q T A Rme2s Kme2 S T G G K A P R K Q)	0.00251
ARTKQTARKSTGGKAPRKQ (A Rme2a T Kme2 Q T A R Kme2 S T G G K A P R K Q)	0
RKSAPATGGVKKPHRYRPG (R K S A P A T G G V Kme1 K P H R Y R P G) [H3 26-45]	0
ARTKQTA[Arg(Me2a)][Lys(Me)]S[pT]GGKAPRKQ	0
ARTKQTARKSTGGKAPRKQ (A Rme2s T Kme2 Q T A Rme2a Kme1 S T G G K A P R K Q)	0

Binder	binding score
ARTKQTA[Arg(Me2a)]K(Ac)[pS][pT]GGKAPRKQ	0.00663
ARTKQTARKSTGGKAPRKQ (A Rme2s T Kme1 Q T A Rme2s Kme3 S T G G K A P R K Q)	0.00161
ARTKQTARKSTGGKAPRKQ (A R T K Q T A R Kme3 S pT G G K A P R K Q)	0
PRKQLATKAARK[pS]APATGG	0
A[Arg(Me2s)]T[Lys(Me2)]QTA[Arg(Me2s)][Lys(Me3)]STGGKAPRKQ	0
ARTKQTARKSTGGKAPRKQ (A R T Kac Q T A Rme2a Kac S T G G K A P R K Q)	0.0576
A[Arg(Me2a)]TK(Ac)QTA[Arg(Me2s)][Lys(Me3)]STGGKAPRKQ	0.00681
PDPAK(Ac)SAPAPKK(Ac)GSKKAVT	0
ARTKQTARKSTGGKAPRKQ (A Rme2s T Kac Q T A Rme2s Kac S T G G K A P R K Q)	0.0405
ARTKQTARKSTGGKAPRKQ (A Rme2a T Kac Q T A Rme2s Kac S T G G K A P R K Q)	0.0518
SGRGKGGKGLGKGGAKRHR (pS G Rme2s G Kac G G Kac G L G K G G A K R H R)	0.126
A[Arg(Me2s)]TK(Ac)QTARKSTGGKAPRKQ	0.0172
ARTKQTARKSTGGKAPRKQ (A Rme2a T Kme3 Q T A Rme2s Kme3 S T G G K A P R K Q)	0
B2	1
SGRGKQGGK(Ac)ARAKAKSRSS	0.00717
SGRGKQGGK(Ac)ARAK(Ac)AKSRSS	0.0104
A[Arg(Me2s)]TK(Me)QTARKSTGGKAPRKQ	0
A[Arg(Me2a)]T[Lys(Me3)]QTAR[Lys(Me2)]STGGKAPRKQ	0
A[Arg(Me2s)]TK(Ac)QTA[Arg(Me2a)][Lys(Me)]STGGKAPRKQ	0.00161
SGRGKGGKGLGKGGAKRHR (pS G R G Kac G G K G L G K G G A K R H R)	0.00108
[pS]GRGK(Ac)QGGKARAK(Ac)AKSRSS	0
ARTKQTARKSTGGKAPRKQ (A R T K Q T A R Kme1 pS T G G K A P R K Q)	0
SGRGKGGKGLGKGGAKRHR (S G Rme2a G Kac G G Kac G L G Kac G G A K R H R)	0.29
ARTKQTARKSTGGK(Ac)APRKQ	0.00108
ARTK(Me3)QTAR(Me2s)K(Ac)STGGKAPRKQ	0.0484
